Measured values as given in paper doi:10.1101/2021.08.20.457142.

B1: MKK7 D-site peptide (second D-site) / JNK1 alpha1 (MAPK8 isoform 1) L198A, full length (parent complex)
chain 1: SQPQRPRPTLQLPLANEAFEQP
chain 2: MSRSKRDNNFYSVEIGDSTFTVLKRYQNLKPIGSGAQGIVCAAYDAILERNVAIKKLSRPFQNQTHAKRAYRELVLMKCVNHKNIIGLLNVFTPQKSLEEFQDVYIVMELMDANLCQVIQMELDHERMSYLLYQMLCGIKHLHSAGIIHRDLKPSNIVVKSDCTLKILDFGLARTAGTSFMMTPYVVTRYYRAPEVIAGMGYKENVDLWSVGCIMGEMVCHKILFPGRDYIDQWNKVIEQLGTPCPEFMKKLQPTVRTYVENRPKYAGYSFEKLFPDVLFPADSEHNKLKASQARDLLSKMLVIDASKRISVDEALQHPYINVWYDPSEAEAPPPKIPDKQLDEREHTIEEWKELIYKEVMDLEERTKNGVIRGQPSPLAQVQQ

Variants of: B1

screen value	Variant
1.85 Z-score of the enrichment rate within one screen of 711 sequences	chain 1 T9N
0.775 Z-score of the enrichment rate within one screen of 711 sequences	chain 1 T9P
1.4 Z-score of the enrichment rate within one screen of 711 sequences	chain 1 T9S
0.628 Z-score of the enrichment rate within one screen of 711 sequences	chain 1 T9G
1.59 Z-score of the enrichment rate within one screen of 711 sequences	chain 1 T9R
1.65 Z-score of the enrichment rate within one screen of 711 sequences	chain 1 T9K
0.998 Z-score of the enrichment rate within one screen of 711 sequences	chain 1 T9A
1.93 Z-score of the enrichment rate within one screen of 711 sequences	chain 1 T9I
0.933 Z-score of the enrichment rate within one screen of 711 sequences	chain 1 T9D
1.12 Z-score of the enrichment rate within one screen of 711 sequences	chain 1 T9V
0.774 Z-score of the enrichment rate within one screen of 711 sequences	chain 1 T9A, chain 1 N16A
1.02 Z-score of the enrichment rate within one screen of 711 sequences	chain 1 P6W
0.655 Z-score of the enrichment rate within one screen of 711 sequences	chain 1 P8T
0.574 Z-score of the enrichment rate within one screen of 711 sequences	chain 1 P8Y
0.564 Z-score of the enrichment rate within one screen of 711 sequences	chain 1 P8S
0.304 Z-score of the enrichment rate within one screen of 711 sequences	chain 1 P8G
0.613 Z-score of the enrichment rate within one screen of 711 sequences	chain 1 P8D
0.889 Z-score of the enrichment rate within one screen of 711 sequences	chain 1 P8H

screen value	Variant
0.631 Z-score of the enrichment rate within one screen of 711 sequences	chain 1 P8R
0.699 Z-score of the enrichment rate within one screen of 711 sequences	chain 1 R5C
1.36 Z-score of the enrichment rate within one screen of 711 sequences	chain 1 R5K
1.01 Z-score of the enrichment rate within one screen of 711 sequences	chain 1 R5Q
0.716 Z-score of the enrichment rate within one screen of 711 sequences	chain 1 R5M
0.688 Z-score of the enrichment rate within one screen of 711 sequences	chain 1 R5H
1.12 Z-score of the enrichment rate within one screen of 711 sequences	chain 1 R5F
1.01 Z-score of the enrichment rate within one screen of 711 sequences	chain 1 R5T
0.604 Z-score of the enrichment rate within one screen of 711 sequences	chain 1 R5N
0.242 Z-score of the enrichment rate within one screen of 711 sequences	chain 1 R5G
1.19 Z-score of the enrichment rate within one screen of 711 sequences	chain 1 T9A, chain 1 Q11A
1.43 Z-score of the enrichment rate within one screen of 711 sequences	chain 1 Q4A, chain 1 Q11A
0.716 Z-score of the enrichment rate within one screen of 711 sequences	chain 1 Q11A, chain 1 L14A
1.14 Z-score of the enrichment rate within one screen of 711 sequences	chain 1 P13A
0.957 Z-score of the enrichment rate within one screen of 711 sequences	chain 1 P13I
1.34 Z-score of the enrichment rate within one screen of 711 sequences	chain 1 P13E
1.41 Z-score of the enrichment rate within one screen of 711 sequences	chain 1 P13Y

The next lines start with the variant.

Variant	screen value
chain 1 N16M	1.27 Z-score of the enrichment rate within one screen of 711 sequences
chain 1 N16R	1.4 Z-score of the enrichment rate within one screen of 711 sequences
chain 1 N16D	1.03 Z-score of the enrichment rate within one screen of 711 sequences
chain 1 N16I	1.55 Z-score of the enrichment rate within one screen of 711 sequences
chain 1 N16K	1.7 Z-score of the enrichment rate within one screen of 711 sequences
chain 1 N16Y	1.82 Z-score of the enrichment rate within one screen of 711 sequences
chain 1 N16F	1.8 Z-score of the enrichment rate within one screen of 711 sequences
chain 1 P3A, chain 1 L10A	-0.251 Z-score of the enrichment rate within one screen of 711 sequences
chain 1 P3A	1.42 Z-score of the enrichment rate within one screen of 711 sequences
chain 1 P3R	1.66 Z-score of the enrichment rate within one screen of 711 sequences
chain 1 P3C	1.42 Z-score of the enrichment rate within one screen of 711 sequences
chain 1 P3T	1.7 Z-score of the enrichment rate within one screen of 711 sequences
chain 1 P3Y	1.41 Z-score of the enrichment rate within one screen of 711 sequences
chain 1 P3E	1.21 Z-score of the enrichment rate within one screen of 711 sequences
chain 1 P3G	1.4 Z-score of the enrichment rate within one screen of 711 sequences
chain 1 P3K	1.42 Z-score of the enrichment rate within one screen of 711 sequences
chain 1 P3H	1.27 Z-score of the enrichment rate within one screen of 711 sequences
chain 1 P3L	1.07 Z-score of the enrichment rate within one screen of 711 sequences
chain 1 L10A, chain 1 L12A	-0.511 Z-score of the enrichment rate within one screen of 711 sequences
chain 1 P6A, chain 1 Q11A	1.17 Z-score of the enrichment rate within one screen of 711 sequences

Variant	screen value
chain 1 P6S	0.764 Z-score of the enrichment rate within one screen of 711 sequences
chain 1 P6D	0.975 Z-score of the enrichment rate within one screen of 711 sequences
chain 1 P6I	1.35 Z-score of the enrichment rate within one screen of 711 sequences
chain 1 P6G	0.655 Z-score of the enrichment rate within one screen of 711 sequences
chain 1 P6R	1.25 Z-score of the enrichment rate within one screen of 711 sequences
chain 1 P6E	1.2 Z-score of the enrichment rate within one screen of 711 sequences
chain 1 L10Y	-0.115 Z-score of the enrichment rate within one screen of 711 sequences
chain 1 L10M	1.08 Z-score of the enrichment rate within one screen of 711 sequences
chain 1 L10E	-0.301 Z-score of the enrichment rate within one screen of 711 sequences
chain 1 L10I	0.256 Z-score of the enrichment rate within one screen of 711 sequences
chain 1 L10D	-0.874 Z-score of the enrichment rate within one screen of 711 sequences
chain 1 L10H	-0.321 Z-score of the enrichment rate within one screen of 711 sequences
chain 1 L10K	-0.134 Z-score of the enrichment rate within one screen of 711 sequences
chain 1 L10F	0.606 Z-score of the enrichment rate within one screen of 711 sequences
chain 1 L10Q	-0.301 Z-score of the enrichment rate within one screen of 711 sequences
chain 1 L10W	-0.417 Z-score of the enrichment rate within one screen of 711 sequences
chain 1 L14A, chain 1 N16A	0.658 Z-score of the enrichment rate within one screen of 711 sequences
chain 1 P3A, chain 1 Q4A	1.61 Z-score of the enrichment rate within one screen of 711 sequences
chain 1 P3A, chain 1 P13A	1.51 Z-score of the enrichment rate within one screen of 711 sequences
chain 1 P3A, chain 1 L14A	0.559 Z-score of the enrichment rate within one screen of 711 sequences
